Substitutions are numbered along the chain they refer to.
T1: Lag3 expressed on cells (recombinant CHO cells expressing Lag3; Lag3+ NFAT Jurkat effector cells) (human, UniProt P18627 29-525)
T1 sequence: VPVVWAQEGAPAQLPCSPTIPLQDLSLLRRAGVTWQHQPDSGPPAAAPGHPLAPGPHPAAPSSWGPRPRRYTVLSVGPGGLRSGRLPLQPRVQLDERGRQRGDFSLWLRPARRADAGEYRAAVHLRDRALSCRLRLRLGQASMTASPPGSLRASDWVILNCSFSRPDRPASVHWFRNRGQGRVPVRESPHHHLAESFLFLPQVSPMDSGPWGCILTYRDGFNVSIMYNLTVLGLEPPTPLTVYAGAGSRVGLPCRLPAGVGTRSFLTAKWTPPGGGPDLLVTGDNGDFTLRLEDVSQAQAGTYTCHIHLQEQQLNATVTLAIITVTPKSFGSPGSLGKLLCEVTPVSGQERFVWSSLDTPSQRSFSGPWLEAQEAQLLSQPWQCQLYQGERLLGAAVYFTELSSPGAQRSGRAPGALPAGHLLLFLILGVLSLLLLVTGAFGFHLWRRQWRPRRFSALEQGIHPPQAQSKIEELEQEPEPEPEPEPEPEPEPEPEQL

T2: biotinylated-Lag3 (UniProt P18627 23-450, limits assumed, biotinylated (site not stated))
T2 construct: also called LAG-3 (A375 MHC-II ELISA)
T2 sequence (looked up): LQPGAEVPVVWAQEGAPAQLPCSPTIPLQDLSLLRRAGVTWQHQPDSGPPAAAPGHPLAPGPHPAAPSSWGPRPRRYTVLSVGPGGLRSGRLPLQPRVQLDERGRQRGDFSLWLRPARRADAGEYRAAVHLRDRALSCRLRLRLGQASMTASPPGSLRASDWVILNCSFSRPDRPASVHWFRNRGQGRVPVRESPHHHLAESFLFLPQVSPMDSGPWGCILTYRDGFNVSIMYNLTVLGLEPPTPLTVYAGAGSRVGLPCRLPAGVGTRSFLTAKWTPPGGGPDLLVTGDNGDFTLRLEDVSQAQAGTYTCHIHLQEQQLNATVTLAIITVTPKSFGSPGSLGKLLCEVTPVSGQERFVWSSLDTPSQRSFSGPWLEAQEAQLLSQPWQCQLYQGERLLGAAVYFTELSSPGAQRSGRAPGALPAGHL

B1: humanized BAP050 (LAG525) (antibody, V domains shown)
VH: QIQLVQSGPELKKPGETVKISCKASGFTLTNYGMNWVRQTPGKGLKWMGWINTDTGEPTYADDFKGRFAFSLETSASTASLQINNLKNADTATYFCARNPPYYYGTNNAEAMDYWGQGTTVTVSS
VL: DIQMTQTTSSLSASLGDRVTISCSSSQDISNYLMWYQQKPDGTVKVLIYYTSTLHLGVPSRFSGSGSGTDYSLTISNLELEDIATYYCQQYYNLPWTFGQGTKVEIK
B2: aLAG3(0411) (antibody, V domains shown)
VH: EVHLLESGGGLVQPGGSLRLSCAASGFIVDDYTMNWVRQAPGKGLEWVSVISWDGGATYYADSVKGRFTISRDDFKNTLYLQMNSLRAEDTAVYYCAKGLTDDTLYGSDYWGQGTLVTVSS
VL: DIQMTQSPSSLSASVGDRVTITCRASQSIVSYLNWYQQKPGKAPKLLIYASSSLQSGVPSRFSGSGSGTDFTLTISSLQPEDFATYYCQQTYSTPLTFGGGTKVEIK
notes: also called aLAG3 (411)
B3: aLAG3(0416) (antibody, V domains shown)
VH: EVQLVESGGGLVQPGGSLRLACAASGFTFSDYAMSWVRQAPGKGLEWVSGIDNSGYYTYYTDSVKGRFTISRDDVKNTLYLQMNSLRAEDTAVYLCTKTHSGLIVNDAFDIWGQGTMVTVSS
VL: B2 VL with M4L, V30S, A50D, S51A, Q55E, F71A, T91S
notes: also called aLAG3 (416)
B4: aLAG3(0414) (antibody, V domains shown)
VH: B2 VH with H3Q, V29F, S49A, A57G, A61T, D103T
VL: B2 VL with V30S, S51A, S53T, T94S
notes: also called aLAG3 (414)
B5: aLAG3(0417) (antibody, V domains shown)
VH: B3 VH
VL: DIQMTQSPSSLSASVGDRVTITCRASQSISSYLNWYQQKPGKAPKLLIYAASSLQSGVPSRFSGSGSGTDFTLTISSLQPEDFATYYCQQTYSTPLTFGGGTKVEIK
notes: also called aLAG3 (417)
B6: MDX25F7 (25F7) (antibody, V domains shown)
VH: QVQLQQWGAGLLKPSETLSLTCAVYGGSFSDYYWNWIRQPPGKGLEWIGEINHNGNTNSNPSLKSRVTLSLDTSKNQFSLKLRSVTAADTAVYYCAFGYSDYEYNWFDPWGQGTLVTVSS
VL: EIVLTQSPATLSLSPGERATLSCRASQSISSYLAWYQQKPGQAPRLLIYDASNRATGIPARFSGSGSGTDFTLTISSLEPEDFAVYYCQQRSNWPLTFGQGTNLEIK
notes: also called Medarex 25F7
B7: BMS-986016 (antibody, V domains shown)
VH: B6 VH with N54R, N56S
VL: B6 VL
B8: aLAG3(0403) (antibody, V domains shown)
VH: EVQLLESGGGLVQPGGSLRLSCAASGFTFDDYTMHWVRQAPGKGLEWVSLVSWDGGGTYYTNSVKGRFTISRDNSKNTLYLQMNSLRAEDTAVYFCAKAITDTSLYGYDYWGQGILVTVSS
VL: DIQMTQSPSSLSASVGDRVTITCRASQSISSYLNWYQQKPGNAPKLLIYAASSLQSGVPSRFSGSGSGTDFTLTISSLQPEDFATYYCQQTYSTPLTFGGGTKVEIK
notes: also called anti-Lag3 aLAG3 (0403)

biological target: T1, Lag3 expressed on cells (recombinant …); experiment: cell-based or functional assay

Question: With B1 as the binder, how does the “EC50 [nM] in Jurkat LAG3 + SED + Raji, 2nd assay” value (“EC50 [nM] … 2nd assay” for short) read?
Answer: 22.6 nM

Question: B2 was tested. Which “EC50 [nM] in Jurkat LAG3 + SED + Raji, 1st assay” value did it give?
Answer: 1.1 nM

Question: What about the “EC50 [nM] … 2nd assay” value of the same binder?
Answer: 1 nM

Question: What does the source list for B3?
Answer: EC50 [nM] in Jurkat LAG3 + SED + Raji, 1st assay: 3.1 nM; EC50 [nM] in Jurkat LAG3 + SED + Raji, 2nd assay: 2.5 nM; EC50 [nM] in Jurkat LAG3 + SED + Raji, 3rd assay: 3.5 nM

Question: What does the source list for B4?
Answer: EC50 [nM] in Jurkat LAG3 + SED + Raji, 1st assay: 1.1 nM; EC50 [nM] in Jurkat LAG3 + SED + Raji, 2nd assay: 1 nM; EC50 [nM] in Jurkat LAG3 + SED + Raji, 3rd assay: 1.8 nM

Question: For B5, which “EC50 [nM] in Jurkat LAG3 + SED + Raji, 1st assay” value is on record?
Answer: 1 nM

Question: For B6, which “EC50 [nM] … 2nd assay” value is on record?
Answer: 8.6 nM

biological target: T3, cynomolgus Lag3 on cells (HEK293F cells transiently transfected with cyno-LAG-3); activated cynomolgus PBMC/T … (cynomolgus); experiment: flow cytometry on CD3/CD28-activated cynomolgus PBMC, antibody at 10 ug/ml
T3 construct: whole, on cells
Description: Thus, cynomolgus peripheral blood mononuclear cells (PBMC) were prepared from fresh cynomolgus blood and were then activated by CD3/CD28 pre-treatment (1 μg/ml) for 2-3 days. […] After staining, cells were washed two times with PBS/2% FCS and analyzed on a FACS Fortessa (BD).

Question: Which “percentage of Lag3 positive cells” value does the source give for B1 here?
Answer: 50.7%

Question: For B2, which “percentage of Lag3 positive cells” value is on record?
Answer: 46.6%

Question: With B3 as the binder, how does the “percentage of Lag3 positive cells” value read?
Answer: 38.9%

Question: Which “percentage of Lag3 positive cells” value does the source give for B4 here?
Answer: 43%

Question: With B5 as the binder, how does the “percentage of Lag3 positive cells” value read?
Answer: 35.3%

Question: Which “percentage of Lag3 positive cells” value does the source give for B6 here?
Answer: 22.1%

Question: Which “percentage of Lag3 positive cells” value does the source give for B7 here?
Answer: 18.6%

Question: With B8 as the binder, how does the “percentage of Lag3 positive cells” value read?
Answer: 44.2%

biological target: T2, biotinylated-Lag3; experiment: competition cell ELISA: antibody pre-incubated with biotinylated Lag3, binding to MHC-II on A375 cells
Description: 25 μl/well of A375 cells (10000 cells/well) were seeded into tissue culture treated 384-well plates (Corning, 3701) and incubated at 37° C. overnight. […] After washing (1×90 μl in PBST) cells were fixed by addition of 30 μl/well glutaraldehyde to a final concentration of 0.05% (Sigma Cat.No: G5882), 10 min at room temperature. After washing (3×90 μl/well with PBST-buffer) 25 μl/well Poly-HRP40-Streptavidin (Fitzgerald, 65R-S104PHRPx) was added in a 1:2000 or 1:8000 dilution and incubated at RT for 1 h. After washing (3×90 μl/well with PBST-buffer) 25 μl/well TMB substrate (Roche, 11835033001) was added and incubated for 2 to 10 min. Measurement took place on a Tecan Safire 2 instrument at 370/492 nm.

Question: B1 was tested. Which IC50 did it give?
Answer: 1 nM

From US20250313629A1 (Hoffmann-La Roche, published 2025)
